Series [1] deals with T1, D-2-hydroxy-4-methylpentanoic acid dehydrogenase (Lacticaseibacillus paracasei, UniProt P17584).
T1 sequence (P17584 1-333): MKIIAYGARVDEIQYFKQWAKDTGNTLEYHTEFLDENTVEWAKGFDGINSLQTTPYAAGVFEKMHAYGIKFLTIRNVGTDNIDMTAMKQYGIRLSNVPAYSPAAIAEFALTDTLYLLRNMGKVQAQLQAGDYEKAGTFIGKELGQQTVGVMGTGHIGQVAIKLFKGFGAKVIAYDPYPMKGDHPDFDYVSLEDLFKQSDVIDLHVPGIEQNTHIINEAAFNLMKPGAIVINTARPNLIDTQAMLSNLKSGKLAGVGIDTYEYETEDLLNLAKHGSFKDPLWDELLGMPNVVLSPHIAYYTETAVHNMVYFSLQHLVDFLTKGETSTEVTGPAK
The series is described as follows: Dehydrogenation kinetics: reaction velocity versus NAD+ and 2-hydroxycarboxylic acid concentration. As to the method:
The dependence of the reaction velocity on the NAD^+ concentration in the dehydrogenation of D-2-hydroxy-4-methylpentanoic acid was studied in the following test mixture: 0.1M phosphate buffer at pH 8.0, 12 mM D,L-2-hydroxy-4-methylpentanoic acid, limiting quantities of enzyme.
The dependence of the reaction speed on the concentration of different 2-hydroxycarboxylic acids for the dehydrogenation of D-2-hydroxycarboxylicacids was tested in the following test mixture: 0.1M phosphate buffer at pH 8.0, 4.5 mM NAD^+ and limiting quantities of enzyme. The concentration of D-2-hydroxycarboxylic acid was varied in the range from 0.1 to a maximum of 30 mM. Inasmuch as no chiral D-2-hydroxycarboxylic acid was available, the racemate was added. […] The initial reaction velocity was evaluated according to Michaelis-Menten, and the kinetic constants Vmax and KM determined by non-linear regression.

Series [2] deals with T1, D-2-hydroxy-4-methylpentanoic acid dehydrogenase. Put plainly: Reduction of 2-ketocarboxylic acids in an enzyme membrane reactor with PEG-NADH, polarimetric read-out. More on the design: endogenous in cells; host or cells: Lactobacillus casei ssp. pseudoplantarum DSM 20008, enzyme isolated from the cells grown in house. The class given is biochemical, Lactobacillus casei ssp. pseudoplantarum (DSM 20008). The conditions noted are these: 7.0 mM 2-ketocarboxylic acid feed, stationary value; for Rotation of Production Solution: 463 nm, 25° C. How it is done: (Preparation according to DE-PS 28 41 414). The following keto acids were converted individually in the reactor:
2-keto-4-methylpentanoic acid (sodium salt), 2-keto-4-(methylmercapto)-butyric acid (sodium salt) and phenyl pyruvate (sodium salt). The product stream flowing out of the membrane reactor was analyzed continuously in a polarimeter. The signals obtained were evaluated by means of calibration curves which had been obtained from optically active 2-hydroxy acids.
The PEG-NADH is prepared according to DE-PS No. 28 41 414. […] The reactor volume is kept constant, by adding keto acid and sodium formate buffer from a reservoir at the same rate as the ultrafiltrate leaves the reactor. The reactor volume was 10 ml, the concentration of PEG-NADH 0.20 mM, and 9 U D-2-hydroxy-4-methylpentanoic acid dehydrogenase (27 U/mg) and 30 U formate-dehydrogenase were fed into the reactor. The substrate solution contained 300 mM sodium formate buffer of pH 7.0 and 7.0 mM of the corresponding 2-ketocarboxylic acid. The reaction solution was pumped over the membrane continuously with a peristaltic pump at 30 ml/hour. About 3 ml ultrafiltrate per hour was obtained. The ultrafiltrate was led continuously through a polarimeter cell (Perkin Elmer Type 241). The determinations were carried out at 463 nm and 25° C. From the measured rotatory value, the product concentration was determined from a calibration curve. The calibration curves were prepared with optically active 2-hydroxycarboxylic acids in 300 mM sodium formate buffer of pH 7.0. For this, the following preparations were used: L-phenyllactic acid (Sigma Company, Munich), L-2-hydroxy-4-methylpentanoic acid (Sigma Company, Munich), and D-2-hydroxy-4-(methylmercapto)-butyric acid (Degussa Company, Hanau). The conversion in the membrane reactor was followed over a period of 15 hours.

Series [3] shares this target. Put plainly: Reduction kinetics: reaction velocity versus NADH and 2-ketocarboxylic acid concentration. The class given is biochemical, Lactobacillus casei ssp. pseudoplantarum. Also on record: endogenous in cells; host or cells: Lactobacillus casei ssp. pseudoplantarum DSM 20008, enzyme isolated from the cells grown in house. How it is done: The reaction speed for reduction of different 2-ketocarboxylic acids was also investigated as a function of the keto acid concentration. […] The ketocarboxylic acid concentration was in each case varied from 0.01 to a maximum of 60 mM. The initial reaction velocity, change of extinction at 340 nm/min, was evaluated by non-linear regression of the Michaelis-Menten equation.

Substrate in series [4]: CCC(C)C(=O)C(=O)O
Put plainly: purified protein, by the assay type. The format is biochemical, Lactobacillus casei ssp. pseudoplantarum. The conditions noted are these: other: reduction, pH 7.0, 0.1 mM NADH.

Substrate in series [5]: CC(C)CC(=O)C(=O)O
The series is described as follows: purified protein, by the assay type. The class given is biochemical, Lactobacillus casei ssp. pseudoplantarum. The conditions noted are these: other: reduction, pH 7.0, 0.1 mM NADH.

Substrate in series [6]: CCCCCCC(=O)C(=O)O
The series is described as follows: purified protein, by the assay type. Conditions: other: reduction, pH 7.0, 0.1 mM NADH. The format is biochemical, Lactobacillus casei ssp. pseudoplantarum.

Substrate in series [7]: CC(C)C(=O)C(=O)O
The series is described as follows: purified protein, by the assay type. The format is biochemical, Lactobacillus casei ssp. pseudoplantarum. Conditions: other: reduction, pH 7.0, 0.1 mM NADH.

Substrate in series [8]: CCC(=O)C(=O)O
The series is described as follows: purified protein, by the assay type. The format is biochemical, Lactobacillus casei ssp. pseudoplantarum. The conditions noted are these: other: reduction, pH 7.0, 0.1 mM NADH.

Substrate in series [9]: O=C(O)C(=O)CS
The series is described as follows: purified protein, by the assay type. The format is biochemical, Lactobacillus casei ssp. pseudoplantarum. Conditions: other: reduction, pH 7.0, 0.1 mM NADH.

Substrate in series [10]: CSCCC(=O)C(=O)O
The series is described as follows: purified protein, by the assay type. The class given is biochemical, Lactobacillus casei ssp. pseudoplantarum. Conditions: other: reduction, pH 7.0, 0.1 mM NADH.

Substrate in series [11]: CCCC(=O)C(=O)O
Put plainly: purified protein, by the assay type. Conditions: other: reduction, pH 7.0, 0.1 mM NADH. The format is biochemical, Lactobacillus casei ssp. pseudoplantarum.

Substrate in series [12]: CCCCC(=O)C(=O)O
Put plainly: purified protein, by the assay type. The format is biochemical, Lactobacillus casei ssp. pseudoplantarum. Conditions: other: reduction, pH 7.0, 0.1 mM NADH.

Substrate in series [13]: CCCCCCC(O)C(=O)O
The series is described as follows: purified protein, by the assay type. Conditions: other: dehydrogenation, pH 8.0, 4.5 mM NAD+, calculated assuming 50% D-acid in the racemic mixtures.

Substrate in series [14]: O=C(O)C(=O)Cc1ccccc1
The series is described as follows: purified protein, by the assay type. Conditions: other: reduction, pH 7.0, 0.1 mM NADH.

Substrate in series [15]: O=C(O)C(O)Cc1ccccc1
Put plainly: purified protein, by the assay type. Conditions: other: dehydrogenation, pH 8.0, 4.5 mM NAD+, calculated assuming 50% D-acid in the racemic mixtures.

Substrate in series [16]: NC(=O)c1ccc[n+]([C@@H]2O[C@H](COP(=O)([O-])OP(=O)(O)OC[C@H]3O[C@@H](n4cnc5c(N)ncnc54)[C@H](O)[C@@H]3O)[C@@H](O)[C@H]2O)c1
The series is described as follows: purified protein, by the assay type. The conditions noted are these: other: pH 8.0, 12 mM D,L-2-hydroxy-4-methylpentanoic acid.

Substrate in series [17]: CC(C)C[C@@H](O)C(=O)O
The series is described as follows: purified protein, by the assay type. Conditions: other: dehydrogenation, pH 8.0, 4.5 mM NAD+, calculated assuming 50% D-acid in the racemic mixtures.

Substrate in series [18]: CCCC(O)C(=O)O
Put plainly: purified protein, by the assay type. Conditions: other: dehydrogenation, pH 8.0, 4.5 mM NAD+, calculated assuming 50% D-acid in the racemic mixtures.

Substrate in series [19]: CC(C)CC(O)C(=O)O
The series is described as follows: purified protein, by the assay type. Conditions: other: dehydrogenation, pH 8.0, 4.5 mM NAD+, calculated assuming 50% D-acid in the racemic mixtures.

Substrate in series [20]: CSCCC(O)C(=O)O
The series is described as follows: purified protein, by the assay type. Conditions: other: dehydrogenation, pH 8.0, 4.5 mM NAD+, calculated assuming 50% D-acid in the racemic mixtures.

Substrate in series [21]: CCCCC(O)C(=O)O
The series is described as follows: purified protein, by the assay type. The conditions noted are these: other: dehydrogenation, pH 8.0, 4.5 mM NAD+, calculated assuming 50% D-acid in the racemic mixtures.

Substrate in series [22]: NC(=O)C1=CN([C@@H]2O[C@H](COP(=O)(O)OP(=O)(O)OC[C@H]3O[C@@H](n4cnc5c(N)ncnc54)[C@H](O)[C@@H]3O)[C@@H](O)[C@H]2O)C=CC1
Put plainly: purified protein, by the assay type. Conditions: other: pH 7.0, 0.7 mM 2-keto-4-methylpentanoic acid.

On to `NC(=O)c1ccc[n+]([C@@H]2O[C@H](COP(=O)([O-])OP(=O)(O)OC[C@H]3O[C@@H](n4cnc5c(N)ncnc54)[C@H](OP(=O)(O)O)[C@@H]3O)[C@@H](O)[C@H]2O)c1` [NADP], for which, in [1] (checked at test concentrations up to 10 mM), the “Replacement of the coenzyme NAD+” value was “cannot replace”.

For the molecule `O=C(O)C(=O)Cc1ccccc1` [2-keto-3-phenylpropionic acid], in [2], the “Rotation of Production Solution” value is on record as -0.115 °, the “% conversion” value amounted to 100% and the Product concentration came to 7.0 mM.

In the case of `NC(=O)C1=CN([C@@H]2O[C@H](COP(=O)(O)OP(=O)(O)OC[C@H]3O[C@@H](n4cnc5c(N)ncnc54)[C@H](OP(=O)(O)O)[C@@H]3O)[C@@H](O)[C@H]2O)C=CC1` [NADPH], in series [3] (checked up to a test concentration of 0.2 mM), the “Replacement of the coenzyme NADH” value is “cannot replace”.

In the case of `CC(C)CC(=O)C(=O)O` [2-keto-4-methylpentanoic acid], in series [2], the “Rotation of Production Solution” value is recorded as -0.047 °, the “% conversion” value was 100% and the Product concentration is given as 7.0 mM.

As to `CSCCC(=O)C(=O)O` [2-keto-4-(methylmercapto)-butyric acid], in series [2], the “Rotation of Production Solution” value is on record as -0.071 °, the “% conversion” value is on record as 98% and the Product concentration is 6.9 mM.

As for `NC(=O)C1=CN([C@@H]2O[C@H](COP(=O)(O)OP(=O)(O)OC[C@H]3O[C@@H](n4cnc5c(N)ncnc54)[C@H](O)[C@@H]3O)[C@@H](O)[C@H]2O)C=CC1` [NADH], in series [3] (pH 7.0, 0.7 mM 2-keto-4-methylpentanoic acid), the “NADH concentration at which the optimal reaction velocity was reached” value stood at 0.10 mM.

Take `NC(=O)c1ccc[n+]([C@@H]2O[C@H](COP(=O)([O-])OP(=O)(O)OC[C@H]3O[C@@H](n4cnc5c(N)ncnc54)[C@H](O)[C@@H]3O)[C@@H](O)[C@H]2O)c1` [NAD^+, nicotinamide-adeninedinucleotide]: in [1] (pH 8.0, 12 mM D,L-2-hydroxy-4-methylpentanoic acid), the “NAD+ concentration at which the optimum conversion is reached” value came out at 4.5 mM.

B1: D-2-hydroxy-4-methylpentanoic acid dehydrogenase (Lacticaseibacillus paracasei) (protein)
chain: T1 sequence (P17584 1-333)
notes: 500 g Lactobacillus casei ssp. pseudoplantarum (DSM 20008) wet mass was suspended in 50 mM phosphate buffer; endogenous in cells; host or cells: Lactobacillus casei ssp. pseudoplantarum DSM 20008, enzyme isolated from the cells grown in house
For the molecule B1, the Km in [4] worked out at 2200 µM; in series [5], 60 µM; in [6], 310 µM; in [7], 4800 µM; in [8], 1700 µM; in series [9] it was 400 µM. Also, the Michaelis-Menten constant (Km) is 620 µM in series [10]; 110 µM in series [11]; 110 µM in series [12]; 310 µM in [13]; 150 µM in series [14]; 1100 µM in [15]. Besides, the Km in series [16] was 450 µM; in [17], 1400 µM; in series [18] it was 700 µM; in series [19], 1400 µM; in series [20], 1500 µM; in series [21], 470 µM. Further, the Km in series [22] was determined as 10 µM. Besides, the Vmax in [4] came out at 26.2 µmol/min/mg; in [5], 27.4 µmol/min/mg; in series [6], 54.0 µmol/min/mg; in series [7], 16.9 µmol/min/mg; in [8], 45.9 µmol/min/mg; in [9], 104.5 µmol/min/mg. For the same molecule, the maximum rate (Vmax) in series [10] was 82.1 µmol/min/mg; in series [11], 59.1 µmol/min/mg; in [12] it was 58.4 µmol/min/mg; in series [13] it was 10.0 µmol/min/mg; in series [14], 304.4 µmol/min/mg; in series [15], 32.6 µmol/min/mg. The Vmax in series [17] was 20.2 µmol/min/mg; in series [18], 10.8 µmol/min/mg; in [19] it was 20.2 µmol/min/mg; in [20], 2.6 µmol/min/mg; in series [21], 11.3 µmol/min/mg.
